# According to the supplement of paper PMC12764529:
# ± gives the half width of the 95% confidence interval.
# How the values were obtained:
# [1] = folding stability dG unfold from trypsin proteolysis; higher = more stable
# Procedure, shortened: (§1)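 Unfolding free energy was derived, per protease or combined, by relating Bayesian-fitted K50 values from sequencing counts to a sequence-predicted unfolded-state K50 and a shared folded-state K50. The underlying digests exposed cysteine-free mini-proteins under 80 residues, in a PA-tagged cDNA display construct, to trypsin and chymotrypsin at 11 threefold-diluted concentrations and to a no-protease condition. A filter kept only designs with AlphaFold2 dimer inter-PAE above 15.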
# [2] = folding stability dG unfold (combined trypsin and chymotrypsin); higher = more stable
# Procedure, shortened: as §1
# [3] = folding stability dG unfold from chymotrypsin proteolysis; higher = more stable
# Procedure, shortened: as §1
Sequence,folding stability dG unfold [1] [kcal/mol],folding stability dG unfold [2] [kcal/mol],folding stability dG unfold [3] [kcal/mol]
SAGGSAGGSAGEVVVEEKEDPSGVLTRTETYPDSVVVTEYKIAPDGKTTEPKPTILPKSESAGGSAGGSAGG [r17_72_JUSTAS],-0.494 ± 0.1,-0.337 ± 0.15,-0.583 ± 0.22
SAGGKPKVYEFEITIEFKTKTKKDKNGKTYKVKKIKIKIKVKVVVDEENKKIYIFDENGKLIAEFELSAGGS [r16_92_TrROS_Hall],3 ± 0.22,3.72 ± 0.26,4.01 ± 0.13
SAGGSAMTVTTTTSVDPKTGIITTTVSVNGTPVFTGTSIVAPGGEVAETFGTYTYDPETGTVTVTGSAGGSA [r15_770_JUSTAS],1.7 ± 0.067,1.43 ± 0.086,1.17 ± 0.049
SAMLVVELEVDLPELKYMTPEEAEEIAEALAVEAAKELFPESDVKVKEVVVEPEPETGKLKVTVVLENESAG [r14_310_TrMRF],2.18 ± 0.13,2.46 ± 0.081,2.51 ± 0.048
SAPNYPFFVRIKLPGNGQEVEFPIESPEEADEMLDNFANHPHIKDIDIYRPDGEEVEIEIKIPPEALKQSAG [r14_747_TrROS],-0.622 ± 0.3,0.0333 ± 0.26,0.119 ± 0.16
SFFVEFGIEHNPENNYIHINFRIYEPDPNGQWRPSSSIPITIPIKIPPPPVPKIEVPEGAKDPEDAADALSA [r9_888_TrROS],2.92 ± 0.2,3.75 ± 0.68,4.43 ± 0.3
SAGGSAGGSAGGKPTITITVELEDGYKATFEYNEETDKITVKIFNKNGELVEEFEFEIKSAGGSAGGSAGGS [r10_1044_TrROS_Hall],1.81 ± 0.12,2.87 ± 0.21,3.24 ± 0.21
SAGGSAGGSAGGKKYEITRILSIEETEDGRIRILIETKTGIIEFDDISEIPPEIRELLGSAGGSAGGSAGGS [r10_748_TrMRF],2.82 ± 0.075,2.73 ± 0.055,2.668 ± 0.021
SAGGSPPPVEVTPITHINGGEPVPTRVETYPDGTVTVHITLPDGSSGTLPAEELAELLAAPGSLGDFSAGGS [r16_105_JUSTAS],1.53 ± 0.071,0.805 ± 0.045,-0.455 ± 0.033
SAGGSAGGSLVIPLPNGGRIEVLEVGEDYVLVRLVDPMPGTNKPRVSEIRLKLPPLKPPPPDKSAGGSAGGS [r12_959_TrMRF],2.36 ± 0.073,2.28 ± 0.11,2.14 ± 0.032
SAGEPLVPLSEYELDVPGGQKVKIEIYALPDGTVVVRITDSEGNESEITIPRAELEKLSPEEIVARLSSAGG [r19_47_JUSTAS],3.71 ± 0.14,3.67 ± 0.098,3.57 ± 0.093
SATMLDYILDMAREQQEKNGKPVPITITIPVRRDPNGKFRMNEIHEELIKALKEAFPNVPIKIEMVPPPSAG [r14_636_TrROS],2.23 ± 0.076,2.28 ± 0.12,2.27 ± 0.036
SAGGSAIEPGQKVLVLFPEDGGLATLTFDPTTRTVEIEVGGERRTYPVDSLQDVLDELGAEVLSTDSAGGSA [r15_500_TrMRF],2.12 ± 0.037,1.82 ± 0.072,1.74 ± 0.037
SAGGDEIVDRIKQAFHNFGYPVRIDDISPPNGKIYIRISPAMRENMKPAIIEIPFPGIKDITIEMWPSAGGS [r8_318_TrROS],1.25 ± 0.14,1.53 ± 0.17,1.49 ± 0.14
SAGGSAPPAVEEIAKILEELFPGYRVVAEAEPVRDPETDEVLLRIRVAVFDENGKVILELEITLPLSAGGSA [r15_1048_TrMRF],3.89 ± 0.054,4.19 ± 0.07,4.3 ± 0.068
SAGGPGWQRIAKWEIPLPNGKDITIEPYYVNPNNNHYMYEIEIGDGKEIPFWVPPGDSPEDALDAILKSAGG [r13_470_TrROS],-0.194 ± 0.2,-0.118 ± 0.16,-0.126 ± 0.32
SAGIEIRIEAYMPWEEARDQVKEIARWLMSMFPGFKVDIDVDHEPVPNNMWVATVTIKIEPLPPGQPIFSAG [r5_936_TrROS],3.83 ± 0.1,4.56 ± 0.12,4.79 ± 0.066
SAGGSAKIEIIKDPETGTYTIRLEKEIKPGQTLTITDENGETWKITSVSVEEVNGELYVTVKVEKVSAGGSA [r15_838_TrROS_Hall],2.24 ± 0.048,3.19 ± 0.056,3.542 ± 0.026
LKITLPDGAEITEITSVSVLPNGTIKITVKVRNPATGETTTVTLTITLKPAPPPEVTIVRDAETGELKLVKS [r1_411_TrROS_Hall],2.63 ± 0.1,2.49 ± 0.23,2.14 ± 0.047
SAGMKETLKVKIKVKLSEEQREKLKKALEELGATVEVDEETGEVTVEVSAEQVEALKKIPGVEEIEVESAGG [r19_212_TrROS_Hall],3.22 ± 0.18,2.76 ± 0.14,2.61 ± 0.24
SGMLAPDATVTTTEIVFEKDPKTGLYYLTVKEKTVTVKPDSSGRLVLTTSPVTITDLGPLTPEEAEKLLSSA [r9_423_JUSTAS],2.16 ± 0.052,2.51 ± 0.085,2.73 ± 0.031

Sequence,folding stability dG unfold [1] [kcal/mol],folding stability dG unfold [2] [kcal/mol],folding stability dG unfold [3] [kcal/mol]
SAGGSAGGSTIVIRLSKEELENMTAEELAEALAEEGAEVTVTVEYDEETDELVVTIEIHPEDLSAGGSAGGS [r12_716_TrROS_Hall],2.12 ± 0.12,2.11 ± 0.13,2.01 ± 0.063
SAGGSAGGSAGGPIITPKIRDALKAAGKDFSEEEIRGIAEGIAAIAIEKGYPDVVITADASAGGSAGGSAGG [r7_512_TrMRF],-0.259 ± 0.06,0.669 ± 0.045,0.938 ± 0.018
SAGGSAGGSAGGSMIVITTEGEEVRNSLPSSYNILETKEDPSVPSYTYDIKKPGTGKEESAGGSAGGSAGGS [r4_435_JUSTAS],-1.55 ± 0.38,< -1,-0.979 ± 0.71
SAGGMPGIRPVLRIRARVRFRGPEREEEIEIELHPEALEAGLTAEELARLRAEELGYEVEIEEIEIESAGGS [r16_554_TrMRF],1.26 ± 0.097,1.84 ± 0.1,2.01 ± 0.068
SAGGSAAPPVTVEVLPDGRIVITRGDAVASSVTPVPPDATITATFPATGETVTITRRAPEVTVTPASAGGSA [r15_235_JUSTAS],-0.616 ± 0.29,0.835 ± 0.097,1.19 ± 0.017
SAGYVEPYEDGMVKIDSTFFLNDWVFKVDWWIMPNGNIMISIEPIEPIPPPPPVPIDADDPEQKEEAQQSAG [r5_715_TrROS],1.69 ± 0.18,2.41 ± 0.23,2.69 ± 0.069
SAGGSAGGSAGGPAPKIDIEIIGVFKTGNRPILIIRFPDGAVIVIDLDSGEIGVIPPDQISAGGSAGGSAGG [r7_28_TrROS],2.9 ± 0.19,2.66 ± 0.17,2.24 ± 0.11
SAGSMEELIANGGTISEERTLPGGEKVFTTTTLTYAPDGTPVINTETTVTTTPPDGTTTPSTSTSTVPLSAG [r5_24_JUSTAS],1.04 ± 0.038,1.04 ± 0.035,0.957 ± 0.058
SAGGMKPKEVIEIEITLPDGRKIRIRLVKKDGKLYLFIEVPEENEEARELAEELAKKLPGVEVEVFEPSAGG [r13_34_TrROS_Hall],2.41 ± 0.1,3.03 ± 0.14,3.26 ± 0.12
SAGGPVKLVKVQFINPETGEPVEISGPASKVLEIAEKLGLNVTSVTVIENPNTILVVVPGPNQLVVVTDSAG [r5_521_TrMRF],1.82 ± 0.055,1.69 ± 0.11,1.45 ± 0.018
SAGGSAGGSAGGKEYKVVEFEVLLEDPEPVKAVALIDPDGPVRVFLGDKVYTFKRDELGSAGGSAGGSAGGS [r10_649_TrMRF],-0.081 ± 0.071,0.766 ± 0.073,1.13 ± 0.13
SAGGSAKKPKPIYLKLTITLSEEEAKKLAEELAEELKKLFPDVEIVEIKVEKDENGNVTVTIYVRLSAGGSA [r15_718_TrROS_Hall],3.14 ± 0.22,4.25 ± 0.28,4.57 ± 0.14
SAGGSAGGSAGDPGERPYVEVTVRIPITPGLEIPWWIPPENMPPEDAEKFAQDIAKEFLDSAGGSAGGSAGG [r11_409_TrROS],0.889 ± 0.047,0.426 ± 0.11,-0.482 ± 0.17
SMEVYTEETEEKSPTPLRRRTTTTTVVTRDGSRTVVTVETRVELEPVPPVPPRPLPPIYTPENREVNILLSA [r9_965_JUSTAS],1.54 ± 0.17,1.38 ± 0.73,0.51 ± 0.81
SAMKNMTPEEVAKLIEEEIRKLYPNAEVKVEVLDAPEDYLVLKVHVTVIEPEEEGEIREFPFLVVIDLSSAG [r14_187_TrMRF],3.47 ± 0.15,3.33 ± 0.09,3.31 ± 0.062
SAGALPPDQVVPIPVLVRLSEDDPELREAIERGEVVEFELPGPLRLLAEFEPLPEDLVLVTLYLEVPEGSAG [r5_223_TrMRF],1.28 ± 0.052,1.98 ± 0.17,2.3 ± 0.062
SAGGSAGGSDPLVSFPLEVELPGGEKVELHFIPGPRLVIARFPDRPVLFYTDGDGVITRVDPISAGGSAGGS [r12_47_TrMRF],0.337 ± 0.059,0.0465 ± 0.064,-0.362 ± 0.11
SAGGSAGGMTFKDPNSNTTASVTEVTPTSVTVTYTLSDGTTRTVTVPTSLVTPDSTVPFTVTSSSAGGSAGG [r6_152_JUSTAS],0.983 ± 0.032,0.892 ± 0.064,0.789 ± 0.16
SAGSMTPEEIRERIEALAEEVGEPPVRVLLKGPSGPLYELDVRFTPEHLEEARRALGVDVVEVEPVPESAGG [r19_50_JUSTAS],0.297 ± 0.068,-0.00549 ± 0.17,-0.512 ± 0.32
SAGGSAGGSMIVETEVEEGDGSAVTKTFYPDSVTTTVNTPDEVTVEKTFPDGTVETTTVPLSPSAGGSAGGS [r12_507_JUSTAS],0.607 ± 0.028,0.896 ± 0.086,0.967 ± 0.031
SAGGKKYYLIKITVKTEKKEYTLPDGSKVTVEKTYELTIIVESKEEAEKLAEELAKKYNLEVEIVPLSAGGS [r8_131_TrROS_Hall],2.95 ± 0.13,4.51 ± 0.13,4.83 ± 0.064
